Read-outs that look alike come from different tables or passages of the source.
Key:
[1] = target: T1, human CD40 on HEK293A/human CD40 cells (human, UniProt P25942 21-277); assay: cell-based or functional assay
[2] = target: T1, human CD40 on HEK293A/human CD40 cells; assay: cell-based or functional assay; remark: listed apart in the source
[3] = target: T1, human CD40 on HEK293A/human CD40 cells; assay: FACS on HEK293A/human CD40 cells
Procedure: (§1) The bispecific antibodies as prepared above were tested for their binding capability to cell surface human, monkey and mouse CD40 proteins by FACS, using the HEK293A cells prepared in Example 1 that stably expressed human, monkey or mouse CD40. Briefly, a 96-well plate was seeded with 10⁵ HEK293A cells in 50 μl PBS, and then added with 100 μl serially diluted anti-CD40 antibody 714VH2VL2 and the bispecific antibodies of the disclosure (starting concentration at 40 μg/ml). After incubation at 4° C. for 1 h, the plate was washed by PBST for 3 times. The plate was added with 1:500 diluted APC-goat anti-mouse IgG (Cat #:405308, BioLegen, USA), incubated at 4° for 1 h, washed with PBS for 3 times, and subjected to fluorescence measurement in a FACS machine (BD).
(§2) Following the protocols in Example 4 and Example 5, the bi- or multi-specific antibodies of the disclosure were tested for their binding capability to human PD-L1 and human CD40 proteins by FACS using the HEK293A cells prepared in Example 1 that stably expressed human PD-L1 or human CD40.

[4] = target: T1, human CD40 on HEK293A/human CD40 cells; assay: FACS on HEK293A/human CD40 cells; remark: listed apart in the source
Procedure: as §1, §2

[5] = target: T2, human PD-L1 on HEK293A/human PD-L1 cells (human, UniProt Q9NZQ7 19-290); assay: FACS on HEK293A/human PD-L1 cells
T2 sequence (Q9NZQ7 19-290 limits assumed): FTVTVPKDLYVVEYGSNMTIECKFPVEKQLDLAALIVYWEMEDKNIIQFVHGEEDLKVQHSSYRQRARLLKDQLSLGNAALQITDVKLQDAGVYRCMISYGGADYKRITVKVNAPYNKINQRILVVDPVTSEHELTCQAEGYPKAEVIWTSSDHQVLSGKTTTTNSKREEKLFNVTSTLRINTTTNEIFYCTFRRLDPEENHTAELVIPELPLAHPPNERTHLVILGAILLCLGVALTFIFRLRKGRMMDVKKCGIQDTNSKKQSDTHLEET
Outline: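 HEK293A cells stably expressing the target (10⁵ cells/well) incubated with serially diluted antibodies from 40 μg/ml, 1 h at 4 °C. After PBST washes, bound antibody detected with 1:500 APC-goat anti-mouse IgG for 1 h at 4 °C and read by flow cytometry.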

human CD40-his protein = target: T3, human CD40-his protein (human, UniProt P25942 21-193); assay: SPR (BIAcore 8K), human CD40-his coupled to CM5 chip, antibody injected
T3 construct: Bought protein; also called human CD40 protein; CD40 molecules; not shown: his tag
T3 sequence (P25942 21-193 limits assumed): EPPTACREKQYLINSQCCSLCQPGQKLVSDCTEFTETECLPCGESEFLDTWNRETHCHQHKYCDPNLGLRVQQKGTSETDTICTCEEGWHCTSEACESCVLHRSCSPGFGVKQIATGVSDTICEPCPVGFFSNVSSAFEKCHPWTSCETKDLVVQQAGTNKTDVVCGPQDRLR
From the text: (§3) Using BIAcore™ 8K instrument (GE Life Sciences, US), the binding affinity of the bi- or multi-specific antibodies to human CD40 and PD-L1 was quantitatively measured. Briefly, 100-200 response units (RU) of human CD40-his protein (Cat #:10774-1108H, Sino Biological, CN) or human PD-L1-his protein (Cat #:10084-H08H, Sino Biological, CN) were coupled to CM5 biosensor chips (Cat #:BR-1005-30, GE Life Sciences. USA). The un-reacted groups were then blocked with 1 M ethanolamine. Serially diluted antibodies at concentrations ranging from 0.3 μM to 10 μM were injected into the SPR running buffer (HBS-EP buffer, pH7.4, Cat #:BR-1006-69, GE Life Sciences, USA) at 30 μL/min. The binding affinity was calculated with the RUs of blank controls subtracted, and the association rate (kₐ) and dissociation rate (kd) were determined using the one-to-one Langmuir binding model (BIA Evaluation Software, GE Life Sciences, USA). The equilibrium dissociation constant KD was calculated as the kd/kₐ ratio.

human PD-L1-his protein [6] = target: T4, human PD-L1-his protein (human, UniProt Q9NZQ7 19-238); assay: SPR (BIAcore 8K), human PD-L1-his coupled to CM5 chip, antibody injected
T4 construct: extracellular domain; also called human PD-L1 (ECD)-his; human PD-L1 protein; not shown: his tag
T4 sequence (Q9NZQ7 19-238): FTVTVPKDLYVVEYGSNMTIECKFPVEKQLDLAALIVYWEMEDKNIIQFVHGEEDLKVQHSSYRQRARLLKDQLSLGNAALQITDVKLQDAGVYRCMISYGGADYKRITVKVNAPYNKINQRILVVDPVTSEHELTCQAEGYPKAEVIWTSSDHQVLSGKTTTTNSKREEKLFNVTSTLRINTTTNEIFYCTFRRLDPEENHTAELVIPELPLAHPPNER
From the text: as §3

[7] = target: T2, human PD-L1 on HEK293A/human PD-L1 cells; assay: FACS blocking assay on HEK293A/human PD-L1 cells; blocked ligand PD-1-Fc
Outline: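 Cells preincubated with serially diluted antibody 1 h at 4° C, washed, then exposed to 200 μg/ml PD-1-Fc for 1 h at 4° C. Bound PD-1-Fc detected with PE-anti-human IgG and read by flow cytometry.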

[8] = target: T2, human PD-L1 on HEK293A/human PD-L1 cells; assay: as above; remark: listed apart in the source
Procedure: (§4) The bispecific antibodies were tested for their blocking activity on PD-1-PD-L1 binding by FACS using the HEK293A cells stably expressing human PD-L1 molecules as prepared in Example 1. Briefly, a 96-well plate was seeded with 10⁵ HEK293A/human PD-L1 cells in 100 μl cell culture medium, and then added with 50 μl serially diluted anti-PD-L1 antibody 56E5VH5VL4 or MBS307-3 molecules. After incubation at 4° C. for 1 h. the plate was washed with PBST for 3 times, added with 100 μl 200 μg/ml PD-1-Fc fusion proteins (Cat #:10377-10211, Sino Biological, CN), incubated at 4° C. for 1 h, washed with PBST for 3 times, and added with 1:500 diluted PE-goat anti-human IgG (Cat #:PAI-86078, Thermofisher, USA). After incubation at 4° C. for 1 h, the plate was washed with PBST for 3 times and measured for fluorescence using a FACS machine (BD).
(§5) Following the protocol of Example 7, the bi- or multi-specific antibodies were tested for their capability to block PD-1-PD-L1 binding by FACS, using the HEK293A cells prepared in Example 1 that stably expressed human PD-L1 molecules.

[9] = target: T2, human PD-L1 on HEK293A/human PD-L1 cells; assay: as above; remark: listed apart in the source
Procedure: as §4, §5

human PD-L1-his protein [10] = target: T4, human PD-L1-his protein; assay: SPR on huPDL1 loaded on the chip; 3C2VH6VL5 injected first, anti-PD-L1 sdAb second
Procedure: To further determine the epitopes the two binding arms of the bi- or multi-specific antibodies bind, a competitive SPR binding assay was performed. Briefly, 1 μg/ml human PD-L1 (ECD)-his proteins (Cat #:10084-H08H, Sino Biological, CN) were coupled to a CM5 biosensor chip (Cat #:BR-1005-30, GE Life Sciences, USA). The un-reacted groups were then blocked with 1 M ethanolamine. The anti-PD-L1 antibodies, 3C2VH6VL5 and 56E5VH5VL4, of 5 μg/ml were respectively injected into the SPR running buffer (IBS-EP buffer, pH7.4, Cat #:BR-1006-69, GE Life Sciences, USA) at 30 μl/min. Then, a second anti-PD-L 1 antibody (i.e., the anti-PD-L1 nanobody) of 5 μg/ml was injected into the SPR running buffer at 30 μL/min. The binding affinity was calculated with the RUs of blank controls subtracted, and the association rate (kₐ) and dissociation rate (kd) were determined using the one-to-one Langmuir binding model.

T1 sequence (P25942 21-277 limits assumed): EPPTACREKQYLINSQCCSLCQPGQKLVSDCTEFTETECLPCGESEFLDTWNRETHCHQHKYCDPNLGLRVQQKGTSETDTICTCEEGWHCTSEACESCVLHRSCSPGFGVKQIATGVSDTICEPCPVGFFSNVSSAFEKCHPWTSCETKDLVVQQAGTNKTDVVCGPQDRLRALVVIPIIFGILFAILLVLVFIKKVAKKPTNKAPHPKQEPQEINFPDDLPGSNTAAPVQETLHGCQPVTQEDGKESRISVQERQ

B1: MBS307-9 (bispecific antibody, human IgG1, kappa, L234A L235A)
heavy 1: QVQLQESGPGLVKPSDTLSLTCAVSGYSITTNYYWNWIRQPPGKGLEWMGYIKYDGSNNYNPSLKNRITISVDTSKNQFSLKLSSVTAVDTAVYYCARLDYWGQGTLVTVSSASTKGPSVFPLAPSSKSTSGGTAALGCLVKDYFPEPVTVSWNSGALTSGVHTFPAVLQSSGLYSLSSVVTVPSSSLGTQTYICNVNHKPSNTKVDKKVEPKSCDKTHTCPPCPAPEAAGGPSVFLFPPKPKDTLMISRTPEVTCVVVDVSHEDPEVKFNWYVDGVEVHNAKTKPREEQYNSTYRVVSVLTVLHQDWLNGKEYKCKVSNKALPAPIEKTISKAKGQPREPQVYTLPPSREEMTKNQVSLWCLVKGFYPSDIAVEWESNGQPENNYKTTPPVLDSDGSFFLYSKLTVDKSRWQQGNVFSCSVMHEALHNHYTQKSLSLSPGGGGGQVQLQESGPGLVKPSQTLSLTCTVSGGSITSDYWNWIRQHPGNKLEYMGYISYTGSTYYNPSLKSRISITRDTSKNQFSLKLSSVTTADTAVYYCARYRDWDVRAMDYWGQGTTVTVSSGGGGSGGGGSGGGGSGGGGSDIVMTQSPDSLAVSLGEKVTMNCKSSQSLLISGNQKNFLTWYQQKPGQPPKLLIYWASTRESGVPDRFSGSGSGTDFTLTISSLQAEDEAVYYCQNDFGFPFTFGQGTKLTAK
heavy 2: QVQLQESGPGLVKPSDTLSLTCAVSGYSITTNYYWNWIRQPPGKGLEWMGYIKYDGSNNYNPSLKNRITISVDTSKNQFSLKLSSVTAVDTAVYYCARLDYWGQGTLVTVSSASTKGPSVFPLAPSSKSTSGGTAALGCLVKDYFPEPVTVSWNSGALTSGVHTFPAVLQSSGLYSLSSVVTVPSSSLGTQTYICNVNHKPSNTKVDKKVEPKSCDKTHTCPPCPAPEAAGGPSVFLFPPKPKDTLMISRTPEVTCVVVDVSHEDPEVKFNWYVDGVEVHNAKTKPREEQYNSTYRVVSVLTVLHQDWLNGKEYKCKVSNKALPAPIEKTISKAKGQPREPQVYTLPPSREEMTKNQVSLSCAVKGFYPSDIAVEWESNGQPENNYKTTPPVLDSDGSFFLVSKLTVDKSRWQQGNVFSCSVMHEALHNHYTQKSLSLSPGGGGGQVQLVQSGAEVKKPGASVKVSCKASGYTFTDYHVNWVRQAPGQGLEWIGWIFPGSGRTFYTDKFKGRVTMTVDTSTSTVYMELSSLRSEDTAVYYCATDYGTSGYGLVYWGQGTTVTVSSGGGGSGGGGSGGGGSGGGGSDIQMTQSPSSLSASVGDRVTITCKASDRINNWLAWYQQKPGKAPKLLISGATSLETGVPSRFSGSGSGTDFTLTISSLQPEDEATYYCQQYWNIPFTFGQGTKLTAK
light: DVVLTQSPLSLPVTLGQPASISCRSSQSLENSNGNTFLNWFQQRPGQSPRLLIYKVSNRFSGVPDRFSGSGSGTDFTLKISRVEAEDVGVYYCLQVTHVPFTFGQGTKLEIKRTVAAPSVFIFPPSDEQLKSGTASVVCLLNNFYPREAKVQWKVDNALQSGNSQESVTEQDSKDSTYSLSSTLTLSKADYEKHKVYACEVTHQGLSSPVTKSFNRGEC
notes: Asymmetric: knob chain with the 56E5VH5VL4 scFv, hole chain with the 3C2VH6VL5 scFv, linker 4 (short linker); also called MBS307-9-1 + MBS307-9-2
With B1 the “EC50 (read off the curve); HEK-Blue/CD40 reporter, OD630, plate coated with human PD-L1-his” value [1] was roughly 0.02 µg/mL, the “EC50 (read off the curve); HEK-Blue/CD40 reporter, OD630, plate coated with human PD-L1-his” value [2] was roughly 0.01 µg/mL and the “EC50 (read off the curve)” value [3] was roughly 0.07 µg/mL. For the same binder, the “EC50 (read off the curve)” value [4] was roughly 0.02 µg/mL, the “EC50 (read off the curve)” value [5] was roughly 0.2 µg/mL and the Kd (human CD40-his protein) was 2.9 nM. For the same binder, the Kd (human PD-L1-his protein [6]) was 0.683 nM, the “IC50 (read off the curve)” value [7] was roughly 0.6 µg/mL and the “IC50 (read off the curve)” value [8] was roughly 0.2 µg/mL. For the same binder, the “IC50 (read off the curve)” value [9] was roughly 0.2 µg/mL.

B2: anti-PD-L1 nanobody (VHH)
VHH: QVQLLESGGGLVQPGGSLRLSCAASGFAFSDYAMTWVRQAPGKGLEWVSTINSGGQSSSYLDSVKGRFTSSRDNSKNTLYLQMNSLRAEDTAVYYCAKGVYMPWKAPKGQGTLVTVSS
notes: also called monospecific anti-PD-L1 nanobody
B2: binds (human PD-L1-his protein [10]).

Reference: patent US20240084027A1 (BEIJING MABWORKS, published 2024)
